The source of these data is the supplement of paper PMC10567573.

A short description of this data set: protein stability index of a GFP-peptide fusion (GPS, HEK-293T) (PSI 1-6); higher = more stable. The following applies: c terminus: native.
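Note: lentivirally expressed fusion library, cells FACS-sorted into six equal-sized GFP/DsRed ratio bins, PSI computed from sequencing read fractions per bin weighted by bin number.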

In the case of DGWIRVSSDNVADLHEKYSGSTPD [PSMB5 addD], the protein stability index (parent: NP_002788.1) is 4.37.

On to EQRNSRWNTVLRAVKAKTHHLEPM [TRPA1 addM], for which the protein stability index (parent: NP_015628.1) was 4.79.

On to CQPISFSGFGAEDDDLGGLGLGPD [POLD2 addD], for which the protein stability index (parent: NP_006221.1) came to 2.2. For the protein HSLRAVSTDPPHHDHHDEFCLMPM [BEX2 addM], the protein stability index (parent: NP_116010.1) was determined as 3.52.

For the protein HSLRAVSTDPPHHDHHDEFCLMPD [BEX2 addD], the protein stability index (parent: NP_116010.1) stood at 4.42. For the protein CQPISFSGFGAEDDDLGGLGLGPM [POLD2 addM], the protein stability index (parent: NP_006221.1) was determined as 2.38. Turning to LPALFTDLYSQEITAEEAREALPD [SNF8 addD], the protein stability index (parent: NP_009172.2) worked out at 5.09.

In the case of EQRNSRWNTVLRAVKAKTHHLEPD [TRPA1 addD], for the setting “parent: NP_015628.1”, the protein stability index was 3.91. For DGWIRVSSDNVADLHEKYSGSTPM [PSMB5 addM], the protein stability index (parent: NP_002788.1) came out at 2.89. For the protein LPALFTDLYSQEITAEEAREALPM [SNF8 addM], the protein stability index (parent: NP_009172.2) was found to be 3.04.
